Source: patent US20240409645A1
One block for each binder: values may come before it.

Columns and labels:
[1] = molecular target: cynomolgus monkey IL-2Rγ/CD132 subunit (cynomolgus monkey); test: ELISA, monovalent VHH-hFc
[2] = molecular target: T1, human common cytokine receptor γ-chain (γc; IL-2Rγ; CD132), recombinant protein (human) (UniProt P31785); test: ELISA, monovalent VHH-hFc
T1 sequence: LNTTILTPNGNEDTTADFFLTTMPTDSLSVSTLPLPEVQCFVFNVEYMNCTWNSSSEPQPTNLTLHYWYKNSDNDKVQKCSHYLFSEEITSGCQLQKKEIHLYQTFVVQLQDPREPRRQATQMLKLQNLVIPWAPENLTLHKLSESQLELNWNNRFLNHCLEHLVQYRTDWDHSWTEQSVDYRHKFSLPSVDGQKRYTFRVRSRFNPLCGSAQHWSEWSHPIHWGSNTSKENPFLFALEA

[3] = molecular target: cynomolgus monkey IL-2Rγ/CD132 subunit (cynomolgus monkey); test: ELISA, monovalent; EC50 cyno vs human subunit
mouse IL-2Rγ (mouse) = molecular target: T2, mouse IL-2Rγ (mouse) (UniProt P34902); test: P.E. binding ELISA
T2 sequence (looked up): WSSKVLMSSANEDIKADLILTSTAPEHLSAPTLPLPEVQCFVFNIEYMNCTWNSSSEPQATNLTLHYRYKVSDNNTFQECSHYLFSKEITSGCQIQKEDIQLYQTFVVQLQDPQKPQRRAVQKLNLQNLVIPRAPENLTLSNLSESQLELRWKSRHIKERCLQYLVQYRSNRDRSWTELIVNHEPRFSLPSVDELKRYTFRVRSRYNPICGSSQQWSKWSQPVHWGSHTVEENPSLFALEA

mouse IL-2Rβ (mouse) = molecular target: T3, mouse IL-2Rβ (mouse) (UniProt P16297); test: P.E. binding ELISA, mouse IL-2Rβ coated
T3 sequence (looked up): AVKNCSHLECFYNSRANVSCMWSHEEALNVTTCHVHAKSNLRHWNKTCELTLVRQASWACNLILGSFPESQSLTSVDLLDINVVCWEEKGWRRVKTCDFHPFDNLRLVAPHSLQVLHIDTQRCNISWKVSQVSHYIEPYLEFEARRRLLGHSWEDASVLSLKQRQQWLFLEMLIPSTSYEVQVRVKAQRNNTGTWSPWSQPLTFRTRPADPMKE

mouse IL-2Rα (mouse) = molecular target: T4, mouse IL-2Rα (mouse) (UniProt P01590); test: P.E. binding ELISA
T4 sequence (looked up): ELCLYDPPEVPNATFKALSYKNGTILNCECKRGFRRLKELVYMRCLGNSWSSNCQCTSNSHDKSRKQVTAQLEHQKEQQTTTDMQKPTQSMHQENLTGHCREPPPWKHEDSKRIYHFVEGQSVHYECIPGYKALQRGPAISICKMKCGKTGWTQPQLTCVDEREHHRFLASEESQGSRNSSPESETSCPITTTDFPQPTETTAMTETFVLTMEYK

[4] = molecular target: T5, mouse common cytokine receptor γ-chain (IL-2Rγ) (mouse) (UniProt P34902); test: P.E. binding ELISA
T5 sequence (looked up): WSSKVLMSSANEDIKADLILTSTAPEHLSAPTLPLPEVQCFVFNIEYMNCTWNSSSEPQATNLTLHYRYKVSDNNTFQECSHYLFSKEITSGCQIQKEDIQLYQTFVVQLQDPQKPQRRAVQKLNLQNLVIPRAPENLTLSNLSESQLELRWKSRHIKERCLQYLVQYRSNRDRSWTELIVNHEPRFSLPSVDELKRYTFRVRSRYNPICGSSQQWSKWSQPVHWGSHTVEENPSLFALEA

cynomolgus monkey IL-2Rγ/CD132 subunit (cynomolgus monkey), sequence (chain, as listed by the source): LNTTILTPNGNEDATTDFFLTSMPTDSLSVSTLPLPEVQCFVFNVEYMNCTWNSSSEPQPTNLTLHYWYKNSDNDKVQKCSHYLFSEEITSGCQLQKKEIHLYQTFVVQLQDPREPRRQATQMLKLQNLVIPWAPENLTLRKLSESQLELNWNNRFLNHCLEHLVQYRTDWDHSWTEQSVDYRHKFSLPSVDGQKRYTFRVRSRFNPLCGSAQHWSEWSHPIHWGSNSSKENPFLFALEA

EC50 [1]: 0.16 nM | EC50 [2]: 0.107 nM | Fold change [3]: 1.5 fold
B1: 38-MP07A11 VHH-hFc, monospecific monovalent (Fc fusion, part only; not given: Both Fc arms and linker, not shown: another chain or arm of the molecule; a dimerising Fc or GST; small tags and cut ends)
VHH: QVQLVESGGGLVQAGGSLRLSCAASGRSLSRDAMGWFRQAPGKEREFVAVMSWGGDTFYTDSVEGRFTFSRDNAKNAVYLEMNDLQPEDTAVYYCAAAPTSFATTAYSSSNSYSYWGRGTQVTVSS

EC50 [1]: 0.158 nM | EC50 [2]: 0.132 nM | Fold change [3]: 1.2 fold
B2: 34-MP04A12 VHH-hFc, monospecific monovalent (Fc fusion, part only; not given: Both Fc arms and linker, not shown: another chain or arm of the molecule; a dimerising Fc or GST; large carriers; small tags and cut ends)
VHH: QVQLVESGGGLVQAGSSLRLSCAASGRTLSRLAMGWFRQAPGKEREFVAVNSWGGDTFYADSVEGRFTYSRDNAKSAVYLQMNSLQPEDTAVYYCAAAPTSFATTAYSSSNSYAYWGQGAQVTVSS

OD450 nm (mouse IL-2Rγ (mouse)): 0.05 OD450 nm
B3: 29-MP04H02 VHH (periplasmic extract) (VHH)
VHH: QVQLVESGGGLVQAGGSLRLACVASGLTFDNYYMGWFRQAPGKEREFVAGIIWNGDHTAYADSIKGRFTISRDNAKNTAYLRMNSLKPEDTAVYYCAATFWIERATTPDIGQYAYWGQGTQVTVSS

EC50 [1]: 0.534 nM | EC50 [2]: 0.683 nM | Fold change [3]: 0.8 fold
B4: 29-MP04H02 VHH-hFc, monospecific monovalent (Fc fusion, part only; not given: Both Fc arms and linker, not shown: another chain or arm of the molecule; a dimerising Fc or GST; large carriers; small tags and cut ends)
VHH: QVQLVESGGGLVQAGGSLRLACVASGLTFDNYYMGWFRQAPGKEREFVAGIIWNGDHTAYADSIKGRFTISRDNAKNTAYLRMNSLKPEDTAVYYCAATFWIERATTPDIGQYAYWGQGTQVTVSS

OD450 nm (P.E. binding ELISA) (mouse IL-2Rβ (mouse)): 0.046 OD450 nm
B5: FJ1427_P035MP06F09 (VHH)
VHH: QVQLVESGGGLVQAGGSLTLSCAASGRAFSNYPVGWFRQAPGKEREFVAAITWLSGSTLYADSVEGRFTISRDNAKNTVYLLMSSLKPEDTALYFCAAALKTITRGQNDYSYWGQGTQVTVSS

OD450 nm (mouse IL-2Rα (mouse)): 0.046 OD450 nm
B6: 5-MP01F05 VHH (periplasmic extract) (VHH)
VHH: EVQLVESGGGLVQAGGSLRLSCAASIRAFTTWSMAWFRQAPGKEREYVARINVSGSVTYYADFVKGRFTISRDNAKKTMYLEMNNLKPEDTALYYCAADRTGVGTNDYNYWGQGTQVTVSS

OD450 nm (P.E. binding ELISA) (mouse IL-2Rβ (mouse)): 0.047 OD450 nm
B7: FJ1427 P035MP06A08 (VHH)
VHH: EVQLVESGGGLVQAGESLRLSCAASGQYFSTYSMAWFRRTPGKEREFVTIISESGGIKEYVDSVKGRFTVSRDNAKNTVYLQMNSLKPEDTAVYYCAAARDWFARNEYQYDYWGQGTQVTVSS

OD450 nm (mouse IL-2Rγ (mouse)): 0.05 OD450 nm
B8: 32-MP04A08 VHH (periplasmic extract) (VHH)
VHH: QVQLVESGGGLVQAGGSLRLSCAASGRTFGSTAVGWFRQVPGKEREFVSAINRSGSATTYADSVKGRFTISRDNAKNTVYLQMNSLTPEDTGVYYCAADSLPYGRPYYFQRSAGEYDYWGQGTQVTVSS

OD450 nm (mouse IL-2Rα (mouse)): 0.048 OD450 nm
B9: 1-MP01H01 VHH (periplasmic extract) (VHH)
VHH: EVQLVESGGGLVQAGGSLRLSCAASGRTFRTHNMGWFRRAPGKEREFVAAISWNVDNTLYADSVKGRFTISRDNGRNMVYLQMNSLKPEDTAVYYCAADNIPLSSDVAATATEYDYWGQGTQVTVSS

OD450 nm (mouse IL-2Rγ (mouse)): 0.045 OD450 nm
B10: 35-MP07G01 VHH (periplasmic extract) (VHH)
VHH: QVQLQESGGGLVQGGGSLRLSCAASGGIFSSYAMGWFRQAPGKEREFVAAISRSGRSTNYADSVKGRFTISRDNAKSTVYLQMNSLKPEETAVYYCAAGRYYNSAYDPSPGDFGSWGHGTQVTVSS

OD450 nm (mouse IL-2Rα (mouse)): 0.046 OD450 nm
B11: 2-MP01A02 VHH (periplasmic extract) (VHH)
VHH: QVQLVESGGGLVQPGGSLRLSCATSGFTFRNNFMSWVRQAPGKGLEWVSTISYGGESTTYAESVKGRFTISRDNAKNTLYLQMNNLKPEDTAVYYCAKATSYDSIRSGSRGQGTQVTVSS

OD450 nm (mouse IL-2Rα (mouse)): 0.045 OD450 nm
B12: 8-MP01C12 VHH (periplasmic extract) (VHH)
VHH: QVQLVESGGGLVQPGGSLRLSCATSGFTFSNNFMSWVRQAPGKGLEFVSTISYGGESTTYAEAVKGRFTISRDNAKNTLYLQMNNLKPEDTAIYYCAKATSYTSIRGAPRGQGTQVTVSS

PE binding ELISA OD [4]: 0.049 OD450 nm
B13: FJ1427_P035MP04F12 (VHH)
VHH: QVQLQESGGGWVQVGESLRLSCVPSGRTFVSGIMGWFRQAPGKEREFVARIILNNNSTRYTDSVKGRFTISRDSAKNTMYLQMNTLRPEDTAVYYCAARDRYGSGNSLSPSAYDYWGQGTQVTVSS

PE binding ELISA OD [4]: 0.044 OD450 nm
B14: FJ1427_P035MP07C02 (VHH)
VHH: EVQLVESGGGWVQVGESLRLSCAPSGRTFVSGIMGWFRQTPGKEREFVARIILNNNSTRYTDSVKGRFTISRDSAKNTMYLQMNTLRPEDTAVYYCAARDRYGSGNSLSPSAYDYWGQGTQVTVSS

EC50 [1]: 0.723 nM | EC50 [2]: 0.62 nM | Fold change [3]: 1.2 fold
B15: 28-MP04D02 VHH-hFc, monospecific monovalent (Fc fusion, part only; not given: Both Fc arms and linker, not shown: another chain or arm of the molecule; a dimerising Fc or GST; large carriers; small tags and cut ends)
VHH: QVQLVESGGGLVQAGGSLRLSCAASGRTLSRYAMGWFRQAPGKEREFVTANSWGGDTYYADSVQGRFTFSRDNAKNTVYLQMNSLQPEDTAVYYCAAAPTSFATTAYSGSNSYAYWGQGTQVTVSS

EC50 [1]: 0.097 nM | EC50 [2]: 0.081 nM | Fold change [3]: 1.2 fold
B16: 37-MP07F09 VHH-hFc, monospecific monovalent (Fc fusion, part only; not given: Both Fc arms and linker, not shown: another chain or arm of the molecule; a dimerising Fc or GST; small tags and cut ends)
VHH: QVQLVESGGGLVQAGGSLRLSCAASGRTLSRYAMGWFRQAPGKEREYVAIDSWGGDTFYADSVEGRFTFSRDNAKNEVYLQMNSLQPEDTAVYYCAGAPTSFATTAYSSSNSYRYWGQGTQVTVSS

EC50 [1]: 0.222 nM | EC50 [2]: 0.145 nM
B17: 36-MP07F02 VHH-hFc, monospecific monovalent (Fc fusion, part only; not given: Both Fc arms and linker, not shown: another chain or arm of the molecule; a dimerising Fc or GST; small tags and cut ends)
VHH: QVQLVESGGGLVQAGGSLRLSCAASGRTLSRYAMGWFRQAPGSEREFVAASSWGGDTFYADSVEGRFTFSRDNAKNAVYLQMNSLQPEDTAAYYCAAAPTSFPTTAYSSSNSYAYWGQGTQVTVSS

OD450 nm (mouse IL-2Rα (mouse)): 0.046 OD450 nm
B18: 3-MP01E03 VHH (periplasmic extract) (VHH)
VHH: QVQLVESGGGLVQAGGSLRLSCTASGRTLSSYSMAWFRQAADKGREFVTAISSSGVVTHVLDSVKGRFTISRDNAKNTVYLQMNSLQPEDTALYFCAGTASSYSTYEANYNYWGQGTLVTVSS

OD450 nm (mouse IL-2Rα (mouse)): 0.046 OD450 nm
B19: 6-MP01G05 VHH (periplasmic extract) (VHH)
VHH: QVQLQESGGGLVQAGGSLRLSCAASGRTFSSYAMGWFRQAPGKEREFVAVISWNVDNTEYTDSVKGRFTISRDNDKNMVYLQMNSLKPEDTAVYYCAADSIPLSSDMSPTATEYGYWGQGTQVTVSS

OD450 nm (mouse IL-2Rγ (mouse)): 0.048 OD450 nm
B20: 27-MP04G01 VHH (periplasmic extract) (VHH)
VHH: QVQLVESGGGLVQAGGSLTLSCAAPGRTFGTDVVGWFRQAPGKEREFVASISRSGDGIYYDDSVKGRFTISRNNAWNTVNLQMNSLKVEDTAVYYCAAGDGWSTYDYWGQGTQVTVSS

EC50 [1]: 0.153 nM | EC50 [2]: 0.155 nM | Fold change [3]: 1 fold
B21: 27-MP04G01 VHH-hFc, monospecific monovalent (Fc fusion, part only; not given: Both Fc arms and linker, not shown: another chain or arm of the molecule; a dimerising Fc or GST; large carriers; small tags and cut ends)
VHH: QVQLVESGGGLVQAGGSLTLSCAAPGRTFGTDVVGWFRQAPGKEREFVASISRSGDGIYYDDSVKGRFTISRNNAWNTVNLQMNSLKVEDTAVYYCAAGDGWSTYDYWGQGTQVTVSS
